Data reported in the nanobody polyreactivity screen of Harvey et al. (2022).

Experiment: yeast display, Sf9 membrane polyspecificity reagent, FACS + sequencing; frameworks hold sequencing errors
Outline: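 Synthetic nanobody libraries on Saccharomyces cerevisiae BJ5465 were galactose-induced for 36–48 hours, stained 1 hour at 4 °C with 10% biotinylated, detergent-solubilized Sf9 membrane reagent and enriched on streptavidin microbeads. FACS then separated cells into low and high (top ~1%) gates by anti-HA (expression) and streptavidin (reagent binding) fluorescence. Genes were colony-PCR amplified, MiSeq 2 × 250 sequenced and CDR-length filtered. A clone's polyreactivity label is that of its gate of origin.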

Row | Sequence | polyreactivity (PSR sort gate)
1 | QVQLVESGGGLVQAGGSLRLSCAASGGIFDSYALGWYRQAPGKERELVADITSGGSTNYADSVKGRFTISRDNAKNTVYLQMNSLKPEDTAVYYCARTVYGARSYDYWGQGTQVTVSS | low polyreactivity
2 | QVQLVESGGGLVQAGGSLRLSCAASGSIFGLYTMGWYRQAPGKERELVAAISGGGGSTYYADSVKGRFTISRDNAKNTVYLQMNSLKPEDTAVYYCAADLELSEWYDYWGQGTQVTVSS | low polyreactivity
3 | QVQLVESGGGLVQAGGSLRLSCAASGRTFSRYAMGWYRQAPGKERELVAAISKSSGTTSYADSVKGRFTISRDNAKNTVYLQMKSQKPEDTAVYYCAAGITGRYYGVRFSEDYWGQGTQVTVSS | high polyreactivity
4 | QVQLVESGGGLVQAGGSLRLSCAASGNTIYKYTMGWSRQAPGKERELVAVISSSSGSTYYADSVKGRFTISRDNAKNTVYLQMNSLKPEDTAVYYCNKRGWWDLRHDYWGQGTQVTVSS | low polyreactivity
5 | QVQLVESGGGLVQAGGSLRLSCAASGSTLYRNAMGWYRQQPGKERELVAGITSSGTTTYYADSVKGRFTISRDNAKNTVYLQMNSLKPEDTAVYYCAARSLGFYYYDMDYWGQGTQVTVSS | low polyreactivity
6 | QVQLVESGGGLVQAGGSLRISCAASGHIFFYYTMGWYRPAPGKERELVAGITIGGSTNYADSVKGRFTISRDNAKNTVSLQMNSLKPEDTAVYYCNVVKYVYIYSYWEYYYWGQGTQVTVSS | low polyreactivity
7 | QVQLVESGGGLVQAGGSLSLSCAASGNIVPSYVMGWYRQAPGKERELVAAITWNGGSTYYADSVKGRFTISRDNAKNTVYLQMNSLKPEDTAVYDCATSGPRLLRYYSSSSPSYDYWGQGTQVTVSS | low polyreactivity
8 | QVHLVESGGGLVQAGGSLRLSCAASGRIFRFYAMGWYRQAPGKERELVADISRRGGSTYYADSVKGRFTISRDNAKNTVYLQMNSLKPEDTAVYYCNARWYRTGSTYHEDYWGQGTQVTVSS | high polyreactivity
9 | QVQLVESGGGLVQAGGSLRLSCAASGFTFGFYAMGWYIQAPGNERELVASITTRGGSTRYADSVKGRFTISRDNAKNTVYLQMNSLKPEDTAVYYCAAQYSYVRYLKRGYGYWGQGTQVTVSS | high polyreactivity
10 | QVQLVESGGGLVQAGGSLRLSCAASGRTFGYYAMGWYRQAPGNERELVASISQSGGRTYYADSVKGRFTISRDNAKNTVYLQMNSLKPVDTAVYLCNAVYYRRTGYEYWGQGSQVTVSS | high polyreactivity
11 | QVHLVESGGGLVQAGGSLRLSCAASGRIFNQYGMGWSRQAPGKERELVAAIRSGDSTNYADSVKGRFTISRDNAKNTVYLQMNSLKPEDTAVYYCARDRPGDYAGYDYWGQGTQVTVSS | low polyreactivity
12 | QVQLVESGGGLVQAGGSLRLSCAASGSIFERYAMGWYRQAPGKERELVAAITWTGGSTYYADSVKGRFTISRDNAQNTVYLQMNSLKPEDTAVYYCAADYLYPLWGWYDYWGQGTQVTVSS | low polyreactivity
13 | QVQLVESGGGLVQAGGSLRLSCAASGRIFGGNAMVWYRQAPGKERELVAAITTRGGSTYADSVKGRFTISRDNAKNTVYLQMNSLKPEDSAVYYCNKRYVIRRRGYDYWGQGTQVTVSS | low polyreactivity
14 | QVQLVESGGGLFQAGGSLRLSCAASGFIFRPYGMGWYRQAPGKERELVAAISWSGDRTYYADSVKGRFTISRDNAKNTVYLQMNSLKPEDTAVYYCAADGVTRDYDYWGQGNQVTVSS | low polyreactivity
15 | QVQLVESGGGLVQAGGSLRLSCAASGFTFRYYVMGWYRQAPGKERELVAAISQSGGSTYYADSVKGRFTISRDNAKNTVYLQMNSLKPEDTAVYYCAARLVKYFRPYDYWGQGTQVTVSS | high polyreactivity
16 | QVQLVESGGGLVQAGGSLRLSCAASGRIFPFYAMGWYRQAPGKERELVAAISRGGSTKYADSVKGRFTISRDNAKNTVYLQMKSLKPEDTAVYYCAAAGYGGSVAAYYYWGQGTQVTVSS | high polyreactivity
17 | QVQLQESGGRLVQAGGSLRLSCAASGNIFPTVSMGWYRQAPGKDREFVVTIDPGSNTYYADSAKGRFTISRDNAQNTVYLQMNSPKPEDTAVYYCAVVFADWATYGYWGQGTQVTVSS | high polyreactivity
18 | QVQLVESGGGLVQAGGSLRLSCAASGFIFYRYAMGWYRQAPGKERELVATISWSGGRTYYADSVKGRFTISRDNAKNTVYLQMNSLKPEDTAVYYCNAVNTHDYGYWGQGTQVTVSS | low polyreactivity
19 | QVQLVESGGGLVQAGGSLRLSCAGSGSTFDSYAMGWYRQAPGKERELVAAITRSDASTYYADSVKGRFTISRDNAKNTVYLQMNSLKPEDTAVYYCAADTSLVYYGGDWEYYYWGQGTQVTVSS | low polyreactivity
20 | QVQLVESGGGLVQAGGSLRLSCAASGSIFSFNAMGWYRPAPGKERELVAAISKSGGRTYYADSVKGRFTISRDNAKNTVYLQMNSLKPEDTAVYYCNVVSYYLYTPGDYWGQGTQVTVSS | high polyreactivity
21 | QVQLVESGGGLVQAGGSLRLSCAASGSIFPYNAMGWYRQAPGKERQLVARISWSGGSTYYADSVKGRFTISRDNAKNTVYLQMNSLKPEDTAVYYCAATIIFDAQYRFYYWGQGTQVTVSS | low polyreactivity
22 | QVQLVESGGGLVQAGGSLRLSCAASGLTFYSYAMGWYRQAPGKERELVATIRWSGGSTYYADSVKGRFTISRDNAKNTVYLQMNSLKPEDTAVYFCAADRRINYDGLDMDYWGQGTQVTVSS | low polyreactivity

Row | Sequence | polyreactivity (PSR sort gate)
23 | QVQLVESGGGLVQAGGSLRLSCAHSGFTFTRNAMGWYRQSPGKETELVATISGSGGGTYYADSVKGRFTISRDNAKNTVYLQMNRLKPEDTAVYYCNARRLYSWQGTARYDFWGQGTQVTVSS | low polyreactivity
24 | QVQLVESGGGLVQAGGSLRLSCAASGSIFYDNAMGWYRQAPGNERELVAAIDDSDRTNYADSVKGRFTITRDNAKNTVYLQMNSLKPEDTAVYYCARDRWKWHYGYDYWGQGTQVTVSS | low polyreactivity
25 | QVQLVESGGGLVQAGGSLRLSCAASGSTFHYYAMGWYRQAPGKERELVAAISSSGVSTYYADSVKGRFTISRDNAKNTVYLQMNSLKPEDTAVYYCNRASVFHYRWYYYWGQGTQVTVSS | high polyreactivity
26 | QVQLVESGGGLVQAGCSLRLSCAASGITFYGNAMGSYRQAPGKERELVAAISRRGGSTYYADSVKGRFTSSRDNAKNSVYLQMISLKPEDTAVYYCAARYYSWSFRFDYWGQGTQLTVSS | high polyreactivity
27 | QVQLVESGGGLVQAGGSLRLSCAASGSIFQSNAMGWYRQPPGKERELVAAISSSGVRTYYADSVKGRFTISRDNAKNTVYLQMNSLKPEDTAVYFCATGWYYAGGPTYEYYYWGQGTQVTVSS | low polyreactivity
28 | QVQLVESGGGLVQAGGSLRLSCAASGSIFNGYAMGWYRQAPGKVRELVAAISWNGGRTYYADSVKGRFTISRDNAKNTVYLQKNSLKPEDTAVYYCNKVSGYDVDYWGQGTQVTVSS | high polyreactivity
29 | QVQLVESGGGLVQAGGSLRLSCAASGRIFTIYAMGWYRQAPGKERELVAAITRGGNTNYADSVKGRFTISRDNAKNTVYLQMNSLKPEDTAVYYCAARANVYTKKRDYWGQGTQVTVSS | high polyreactivity
30 | QVQLVESGGGLVQAGGSLRLSCPAPGRIFDRNAMGRYRQAPGKERELVAAISGSGGRTYYADSVKGRFTISRDNAKNTVYLQMNSLKPEDTAVYYCAASRKYGYGDWGQGTQVTVSS | high polyreactivity
31 | QVQLVESGGGLVQAGGSLRLSCAASGSTFGHNAMGWYRQAPGKERELVAAIDSGDGTTYADSVKGRFTISRDNAKNTVYFQMNSLKPEDTAVYYCAATTDRAEDDDNIGGYWGQGTQVTVSS | low polyreactivity
32 | QVQLVESGGGLVQAGGSLRLSCAASGSIFDYKAMGWYRQAPGKERELVAAIDSSDTGTYYADSVKGRFTISRDNAKNTVYLQMNSLKPEDTAVYYCAAEYGWWEGSTTYLRYDYWGQGTQVTVSS | low polyreactivity
33 | QVQLVESGGGLVQAGGSLRLSCAASGIIFELYAMGWYRQAPGKERELVAAISISGDSTYYADSVTGRFTISRDTAKNTVYLQMKSLKPEDTAVYYCAKQSYRWPYLVTKYYEYDYWGQGTQVTVSS | low polyreactivity
34 | QVQLVESRGGLVQAGGSLRLSFAASGIIFADYAMGWYRQAPGKERELVAAISSGDSTYYADSVKGRFTISRDNAKNTVYLQMNSLKPEDTAVYYCAARLYRNKYRIAKMNYWGQGTQVTVSS | high polyreactivity
35 | QVQLVESGGGLVQAGGSLRFSCAASGSTFTAYVMGWYRQAPGKERELVAAISRSGGRTYYADSVKGRFTISRDNAKKTVYLQMNSLKPEDTAVYYCAARSGPLAYDYWGQGTQVTVSS | high polyreactivity
36 | QVQLVESGGGLVQAGGSLRLSCAASGRIFVASAMGWYRQAPGKERELVAAISKTGGSTYYADSVKGRFTISRDNAKKTVYLQMNSLKPEDTAVYYCAADVYRRFDYWGQGTQVTVSS | low polyreactivity
37 | QVQLGESGGGLVQAGGSLRLSCAASGGILYWYAMGWYRQAPGKERELVAAIDGTGGSTYYADSVKGRFTISRDNAKNTVYFQMYSLRPEDTEVYYCDATRPSIVTGNVKNGYWGHGTQVTVSS | low polyreactivity
38 | QVQLVESGGGLVQAGGSLRLSCAASGSTFTPYAMGWYRQAPGKERELVAAITWRTGSTRYADSVKGRFTISRDNAKNTVYLQMNSLKPEDTAVYYCAAKVTRFGAPGVNYWGQGTKVTVSS | high polyreactivity
39 | QVQLVESGGGLVQAGGSLRLSSAASGLTFESYAIGWYRQAPWKERELVAAISFSCGSTNYADAVKGRFTISRDNAKNTVYLQLNSLKPEDTAVYYCAAEYGSPRGTGYDSWGQGTQVTVSS | high polyreactivity
40 | QVQLVESGGGLVQAGGSLRLSCAASGSTFESYDMGWYRQAPGKERELVAAIDWSGGITYYADSVKGRFTISRDNAKNTVYLQMNSLKPEDTAVYYCNAGPYWWYYGEDYWGQGTQVTVSS | low polyreactivity
41 | QVQLVESGGGLVQAGGSLRLSCAASGRIIYWYAMGWYRQAPGKERELVAAIDWSAASTYYADSVKGRFTISRDNAKNTVYLQMNSLKPEDTAVYYCNRRGRGGESYRTTPGALGYWGQGTQVTVSS | low polyreactivity
42 | QVQLVESGGGLVQAGCSLRLSCSASGSTFVAYAMGWYRQAPGTERELVAANTTGGSTNYADSVKGRFTISRDNAKNTVYLQMNSLKPEDTAVYYCATDSSTTWLRRATSKGPGEYWGQGTQVTVSS | low polyreactivity
43 | QVQLEESGGGLVQAGGSLRLICADSGFTFVYYARGWYRQAPGKERELVATISGNGGRTYYADSVKGRFTISRDNAKNTVYLQMNSLKPEDTAVYYCNADDPYLYYDSYDYWGQGTQVTVSS | low polyreactivity
